The Kd is a measure of binding affinity in units of concentration. Usually koff stands for a measure of how fast the partners let go of each other. High values mean fast dissociation, low ones slow dissociation. Broadly, the kon is a measure of how fast the partners come together. A higher kon goes with faster complex formation.

Here are results for 32 molecules from US20240279318A1 (NANJING LEGEND BIOTECH, published 2024).

To fix the notation:
B1: AS170036 VL1VH1-56Y108D (scFv)
scFv: QSALTQPRSVSGSPGQSVTISCAGTSSDVGSENYVSWYQQHPGKAPKLMIYQVNKRASGVPDRFSGSKSGNTASLTISGLQAEDEADYYCASYRSSDHNIVFGGGTKLTVLGGGGSGGGGSGGGGSEVQLVESGGGLVQPGGSLRLSCAASGFTFSSYAMSWVRQAPGKGLEWVSTINSGTYSPYYADSVKGRFTISRDNSKNTLYLQMNSLRAEDTAVYYCAKNFFDGSWFLDPPAMDYWGQGTLVTVSSHHHHHH
notes: also called 17-AS170036 VL1VH1-56Y108D
B2: AS170036 VL1VH1-57M108S (scFv)
scFv: B1 scFv with Y182G, S183M, D234S
notes: also called 30-AS170036 VL1VH1-57M108S
B3: AS170036 VL1VH1-57M108A (scFv)
scFv: B1 scFv with Y182G, S183M, D234A
notes: also called 28-AS170036 VL1VH1-57M108A
B4: AS170036 VL1VH1-98F108S (scFv)
scFv: B1 scFv with H98F, Y182G, D234S
notes: also called 33-AS170036 VL1VH1-98F108S
B5: AS170036 VL1VH1-57M98F (scFv)
scFv: B1 scFv with H98F, Y182G, S183M, D234G
notes: also called 13-AS170036 VL1VH1-57M98F
B6: AS170036 VL1VH1-57M98I (scFv)
scFv: B1 scFv with H98I, Y182G, S183M, D234G
notes: also called 14-AS170036 VL1VH1-57M98I
B7: AS170036 VL1VH1-98Q108D (scFv)
scFv: B1 scFv with H98Q, Y182G
notes: also called 38-AS170036 VL1VH1-98Q108D
B8: AS170036 VL1VH1-57H98F (scFv)
scFv: B1 scFv with H98F, Y182G, S183H, D234G
notes: also called 07-AS170036 VL1VH1-57H98F
B9: AS170036 VL1VH1-98I108S (scFv)
scFv: B1 scFv with H98I, Y182G, D234S
notes: also called 36-AS170036 VL1VH1-98I108S
B10: AS170036 VL1VH1-57H108D (scFv)
scFv: B1 scFv with Y182G, S183H
notes: also called 23-AS170036 VL1VH1-57H108D
B11: AS170036 VL1VH1-57M108D (scFv)
scFv: B1 scFv with Y182G, S183M
notes: also called 29-AS170036 VL1VH1-57M108D
B12: AS170036 VL1VH1-57H108A (scFv)
scFv: B1 scFv with Y182G, S183H, D234A
notes: also called 22-AS170036 VL1VH1-57H108A
B13: AS170036 VL1VH1-57H98Q (scFv)
scFv: B1 scFv with H98Q, Y182G, S183H, D234G
notes: also called 09-AS170036 VL1VH1-57H98Q
B14: AS170036 VL1VH1-57H98I (scFv)
scFv: B1 scFv with H98I, Y182G, S183H, D234G
notes: also called 08-AS170036 VL1VH1-57H98I
B15: AS170036 VL1VH1-98F108A (scFv)
scFv: B1 scFv with H98F, Y182G, D234A
notes: also called 31-AS170036 VL1VH1-98F108A
B16: AS170036 VL1VH1-57K108A (scFv)
scFv: B1 scFv with Y182G, S183K, D234A
notes: also called 25-AS170036 VL1VH1-57K108A
B17: AS170036 VL1VH1-57K108D (scFv)
scFv: B1 scFv with Y182G, S183K
notes: also called 26-AS170036 VL1VH1-57K108D
B18: AS170036 VL1VH1-57K98I (scFv)
scFv: B1 scFv with H98I, Y182G, S183K, D234G
notes: also called 11-AS170036 VL1VH1-57K98I
B19: AS170036 VL1VH1-98F108D (scFv)
scFv: B1 scFv with H98F, Y182G
notes: also called 32-AS170036 VL1VH1-98F108D
B20: AS170036 VL1VH1-98I108D (scFv)
scFv: B1 scFv with H98I, Y182G
notes: also called 35-AS170036 VL1VH1-98I108D
B21: AS170036 VL1VH1-98Q108A (scFv)
scFv: B1 scFv with H98Q, Y182G, D234A
notes: also called 37-AS170036 VL1VH1-98Q108A
B22: AS170036 VL1VH1-98Q108S (scFv)
scFv: B1 scFv with H98Q, Y182G, D234S
notes: also called 39-AS170036 VL1VH1-98Q108S
B23: AS170036 VL1VH1-57K108S (scFv)
scFv: B1 scFv with Y182G, S183K, D234S
notes: also called 27-AS170036 VL1VH1-57K108S
B24: AS170036 VL1VH1-57K98F (scFv)
scFv: B1 scFv with H98F, Y182G, S183K, D234G
notes: also called 10-AS170036 VL1VH1-57K98F
B25: AS170036 VL1VH1-98I108A (scFv)
scFv: B1 scFv with H98I, Y182G, D234A
notes: also called 34-AS170036 VL1VH1-98I108A; 34-AS170036 VL1VH1-98I08A
B26: AS170036 VL1VH1-57H108S (scFv)
scFv: B1 scFv with Y182G, S183H, D234S
notes: also called 24-AS170036 VL1VH1-57H108S
B27: AS170036 VL1VH1-57M98Q (scFv)
scFv: B1 scFv with H98Q, Y182G, S183M, D234G
notes: also called 15-AS170036 VL1VH1-57M98Q
B28: AS170036 VL1VH1-57K98Q (scFv)
scFv: B1 scFv with H98Q, Y182G, S183K, D234G
notes: also called 12-AS170036 VL1VH1-57K98Q
B29: AS170036 VL1VH1-56Y108S (scFv)
scFv: B1 scFv with D234S
notes: also called 18-AS170036 VL1VH1-56Y108S
B30: LD97A (scFv)
scFv: B1 scFv with D97A, Y182G, D234G
notes: AS170036 VL1VH1 scFv mutein
B31: LD97G (scFv)
scFv: B1 scFv with D97G, Y182G, D234G
notes: AS170036 VL1VH1 scFv mutein
B32: LD97F (scFv)
scFv: B1 scFv with D97F, Y182G, D234G
notes: AS170036 VL1VH1 scFv mutein

Changes are numbered by the printed parent chain.

In one assay the target is T1, AFP158/HLA-A*02:01 complex (human).
T1 construct: flowed as analyte in SPR
As to the kind of experiment: SPR, fold vs AS170036 VL1VH1.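 Also: crude scFv muteins immobilised on a sensor chip, peptide–MHC complex passed over at several concentrations, binding then buffer-driven dissociation, KD estimated from on- and off-rates.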 A general note: SPR reads the build-up and loss of mass on a sensor chip optically.
Experimental: (§1) The experiment was carried out as follows. The crude scFv protein were captured onto the sensorchip. Different concentrations (320, 160, 40 nM) of AFP158/HLA-A*02:01 complex flowed over the sensorchip surface, and were allowed to bind the antibody fragment for 100 s followed by injection of the running buffer to allow dissociation of the complex. On-rate (kd) and off-rate (kd) were calculated based on association and dissociation curve, and were used to estimate the equilibrium dissociation constant (KD).
(§2) The crude scFv muteins were then subjected to SPR affinity measurement by the method mentioned above.
Molecule B1 returned an Affinity increase of 37.3 fold.
Same read-out and setting: as for B2, the figure is 6.8 fold; as for B3, 13.6 fold; as for B4, 8.6 fold.
Molecule B5 came in with an Affinity increase of 9.3 fold.
B6 had an Affinity increase of 5.6 fold.
As to B7, the Affinity increase was 16.3 fold.
Same read-out and setting: next, B8: 30.2 fold.
Take B9: the Affinity increase came to 7.7 fold.
The same measure, in the same setting: as for B10, the figure is 23.5 fold; as for B11, 11.8 fold; as for B12, 32.5 fold.
The molecule B13 had an Affinity increase of 24.8 fold.
In turn, B14 had an Affinity increase of 12.6 fold.
On to B15, for which the Affinity increase was determined as 19.1 fold.
Still for that read-out and setting: next, B16: 22.5 fold; B17: 18.9 fold.
As to B18, the Affinity increase turned out to be 9.1 fold.
On the same count and under the same terms, as for B19, the figure is 17.6 fold.
With B20, the Affinity increase is 15.8 fold.
The same measure, in the same setting: next, B21: 20.5 fold.
Regarding B22, the Affinity increase was found to be 8.5 fold.
The same measure, in the same setting: as for B23, the figure is 10.1 fold.
The molecule B24 had an Affinity increase of 11.8 fold.
The molecule B25 showed an Affinity increase of 20.1 fold.
Consider B26, for which the Affinity increase came to 14.2 fold.
Still for that read-out and setting: as for B27, the figure is 8 fold.
With B28, the Affinity increase worked out at 13.9 fold.
Same read-out and setting: as for B29, the figure is 19.2 fold.

A further assay deals with T2, AFP158/HLA-A*02:01 complex (human).
T2 construct: flowed over the chip in SPR; also called AFP158 pro
As to the kind of experiment: SPR, KD ratio to AS170036 VL1VH1.
Experimental: as §1
Regarding B30, the Affinity increase amounted to 0.5 fold.
On to B31, for which the Affinity increase came out at 0.8 fold.
Same read-out and setting: as for B32, the figure is 0.5 fold.

For another assay, the target named is T2, AFP158/HLA-A*02:01 complex. As to the kind of experiment: SPR, scFv captured, pMHC in flow.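 Also: complex injected at several concentrations over crude scFv, association then running-buffer dissociation, KD estimated from kinetic on- and off-rate constants.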
As to B30, the dissociation constant Kd was 470 nM.
As to B31, binding was put at a Kd of 310 nM. Against the preceding molecule, the Kd is about 1.5-fold lower.
The same measure, in the same setting: next, B32: 450 nM.

A further assay deals with T2, AFP158/HLA-A*02:01 complex. As to the kind of experiment: SPR, KD ratio to AS170036 VL1VH1.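 Also: crude scFv captured on a sensor chip, peptide–HLA complex passed over at several concentrations, association then buffer dissociation, KD derived from on- and off-rates.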 The source holds these as a separate data set.
Experimental: as §1
For the molecule B30, the Affinity increase came out at 0.5 fold.
On the same count and under the same terms, as for B31, the figure is 0.8 fold; as for B32, 0.5 fold.

A further assay addresses T2, AFP158/HLA-A*02:01 complex. As to the kind of experiment: SPR, scFv captured, pMHC in flow.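 Also: complex injected at several concentrations over crude scFv, association then running-buffer dissociation, KD estimated from kinetic on- and off-rate constants.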 The source holds these as a separate data set.
Experimental: as §1
As to B30, the dissociation constant Kd turned out to be 470 nM. In other words, the sub-micromolar range.
Same read-out and setting: next, B31: 310 nM.
B32 gave a dissociation constant Kd of 450 nM.

The target of another assay is T1, AFP158/HLA-A*02:01 complex. Briefly: SPR, crude scFv captured, pMHC analyte.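 Also: pMHC analyte injected at three concentrations, association phase of one hundred seconds, then running buffer for dissociation, rates fitted from both curves, KD derived from the rates.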
Experimental: as §1, §2
In turn, B1 yielded a Kd of 6 nM, a koff of 0.0012 s⁻¹ and a kon of 200000 M⁻¹ s⁻¹.
The corresponding values for B2 are 33 nM, 0.0067 s⁻¹ and 200000 M⁻¹ s⁻¹.
Taken in the same sequence, the figures for B3 were 17 nM, 0.004 s⁻¹ and 240000 M⁻¹ s⁻¹.
The corresponding values for B4 are 26 nM, 0.0086 s⁻¹ and 330000 M⁻¹ s⁻¹.
As to B5, the equilibrium dissociation constant (Kd) turned out to be 24 nM, the dissociation rate constant (koff) is 0.0087 s⁻¹ and the association rate constant (kon) was determined as 360000 M⁻¹ s⁻¹.
As to B6, the dissociation constant (Kd) amounted to 40 nM, the off-rate (koff) stood at 0.013 s⁻¹ and the association rate constant (kon) came to 310000 M⁻¹ s⁻¹.
Consider B7, for which the Kd was 14 nM, the dissociation rate constant (koff) was determined as 0.0045 s⁻¹ and the on-rate constant (kon) amounted to 330000 M⁻¹ s⁻¹.
The corresponding values for B8 are 7.4 nM, 0.0018 s⁻¹ and 240000 M⁻¹ s⁻¹.
The molecule B9 returned a Kd of 29 nM, a koff of 0.007 s⁻¹ and a kon of 240000 M⁻¹ s⁻¹.
Taken in the same sequence, the figures for B10 were 9.6 nM, 0.002 s⁻¹ and 210000 M⁻¹ s⁻¹.
B11 returned a Kd of 19 nM, a koff of 0.0055 s⁻¹ and a kon of 290000 M⁻¹ s⁻¹.
As for B12, the Kd came out at 6.9 nM, the koff came out at 0.0014 s⁻¹ and the association rate constant (kon) was determined as 210000 M⁻¹ s⁻¹.
The corresponding values for B13 are 9.1 nM, 0.0017 s⁻¹ and 190000 M⁻¹ s⁻¹.
For the molecule B14, the Kd worked out at 18 nM, the koff amounted to 0.0036 s⁻¹ and the on-rate constant (kon) came to 200000 M⁻¹ s⁻¹.
The corresponding values for B15 are 12 nM, 0.0039 s⁻¹ and 330000 M⁻¹ s⁻¹.
The corresponding values for B16 are 10 nM, 0.0018 s⁻¹ and 180000 M⁻¹ s⁻¹.
B17: binding was characterised by a dissociation constant (Kd) of 12 nM, the off-rate constant (koff) came out at 0.0022 s⁻¹ and the kon was found to be 190000 M⁻¹ s⁻¹.
The molecule B18 registered an equilibrium dissociation constant (Kd) of 25 nM, a dissociation rate constant (koff) of 0.004 s⁻¹ and a kon of 160000 M⁻¹ s⁻¹.
In turn, B19 gave a dissociation constant Kd of 13 nM, an off-rate constant (koff) of 0.0057 s⁻¹ and a kon of 450000 M⁻¹ s⁻¹.
For B20, binding was put at a Kd of 14 nM, the koff was determined as 0.0053 s⁻¹ and the on-rate (kon) came out at 370000 M⁻¹ s⁻¹.
The corresponding values for B21 are 11 nM, 0.0028 s⁻¹ and 250000 M⁻¹ s⁻¹.
Taken in the same sequence, the figures for B22 were 27 nM, 0.0057 s⁻¹ and 220000 M⁻¹ s⁻¹.
The corresponding values for B23 are 22 nM, 0.0026 s⁻¹ and 120000 M⁻¹ s⁻¹.
B24 displayed a dissociation constant Kd of 19 nM, a koff of 0.004 s⁻¹ and an on-rate constant (kon) of 210000 M⁻¹ s⁻¹.
The corresponding values for B25 are 11 nM, 0.0031 s⁻¹ and 280000 M⁻¹ s⁻¹.
In turn, B26 had a Kd of 16 nM, a koff of 0.0022 s⁻¹ and an on-rate (kon) of 140000 M⁻¹ s⁻¹.
Molecule B27 displayed a Kd of 28 nM, a koff of 0.0067 s⁻¹ and a kon of 240000 M⁻¹ s⁻¹.
The corresponding values for B28 are 16 nM, 0.0025 s⁻¹ and 160000 M⁻¹ s⁻¹.
The corresponding values for B29 are 12 nM, 0.0017 s⁻¹ and 140000 M⁻¹ s⁻¹.
